This experiment deals with T1, STAT3 (Signal Transducer and Activator of Transcription 3) (mouse, UniProt P42227 2-770).
T1 construct: Detected by anti-STAT3 Western blot in PKC immunoprecipitates
Briefly: co-immunoprecipitation from primary keratinocyte lysates, anti-STAT3 Western blot. On the procedure: FIG. 23 identifies a specific interaction between STAT3 and PKCδ in primary skin keratinocytes. Primary keratinocytes were either untreated (upper panel) or infected for 1 hour with isoform specific, recombinant PKC α, δ, η or ζ adenoviruses (lower panel). Cells were extracted and immunoprecipitated (IP) with isoform specific PKC antibodies. The immunoprecipitates were subjected to Western blot analysis using anti-PKCs or anti-STAT3 antibodies.
For orientation: Immunoblotting shows a protein as a band on a membrane.

The text below walks through data of US20060258562A1 (HEALOR, published 2006).

T1 sequence (P42227 2-770 limits assumed): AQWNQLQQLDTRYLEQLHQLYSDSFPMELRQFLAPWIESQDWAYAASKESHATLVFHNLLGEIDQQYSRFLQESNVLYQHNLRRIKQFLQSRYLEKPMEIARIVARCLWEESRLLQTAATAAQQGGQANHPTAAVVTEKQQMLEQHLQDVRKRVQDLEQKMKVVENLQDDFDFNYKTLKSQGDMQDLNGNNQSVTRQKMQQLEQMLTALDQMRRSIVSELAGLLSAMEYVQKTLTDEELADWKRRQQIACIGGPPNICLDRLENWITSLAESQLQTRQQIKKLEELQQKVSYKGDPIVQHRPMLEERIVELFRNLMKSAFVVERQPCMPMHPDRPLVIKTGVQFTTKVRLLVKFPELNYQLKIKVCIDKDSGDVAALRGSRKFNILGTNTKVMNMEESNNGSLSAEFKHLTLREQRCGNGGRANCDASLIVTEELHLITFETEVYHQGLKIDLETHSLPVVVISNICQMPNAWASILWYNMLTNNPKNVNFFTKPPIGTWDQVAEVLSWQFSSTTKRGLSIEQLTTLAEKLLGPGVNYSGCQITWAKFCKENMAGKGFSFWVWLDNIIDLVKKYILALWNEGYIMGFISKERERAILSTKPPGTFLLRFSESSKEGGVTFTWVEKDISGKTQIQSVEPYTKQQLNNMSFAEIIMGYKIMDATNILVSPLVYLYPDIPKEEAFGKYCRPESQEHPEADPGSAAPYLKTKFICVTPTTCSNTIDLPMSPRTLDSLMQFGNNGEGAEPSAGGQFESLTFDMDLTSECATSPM

B1: PKCη (protein kinase C eta) (enzyme, mouse, UniProt P23298 1-683, looked up)
chain: MSSGTMKFNGYLRVRIGEAVGLQPTRWSLRHSLFKKGHQLLDPYLTVSVDQVRVGQTSTKQKTNKPTYNEEFCANVTDGGHLELAVFHETPLGYDHFVANCTLQFQELLRTAGTSDTFEGWVDLEPEGKVFVVITLTGSFTEATLQRDRIFKHFTRKRQRAMRRRVHQVNGHKFMATYLRQPTYCSHCREFIWGVFGKQGYQCQVCTCVVHKRCHHLIVTACTCQNNINKVDAKIAEQRFGINIPHKFNVHNYKVPTFCDHCGSLLWGIMRQGLQCKICKMNVHIRCQANVAPNCGVNAVELAKTLAGMGLQPGNISPTSKLISRSTLRRQGKEGSKEGNGIGVNSSSRFGIDNFEFIRVLGKGSFGKVMLARIKETGELYAVKVLKKDVILQDDDVECTMTEKRILSLARNHPFLTQLFCCFQTPDRLFFVMEFVNGGDLMFHIQKSRRFDEARARFYAAEIISALMFLHEKGIIYRDLKLDNVLLDHEGHCKLADFGMCKEGICNGVTTATFCGTPDYIAPEILQEMLYGPAVDWWAMGVLLYEMLCGHAPFEAENEDDLFEAILNDEVVYPTWLHEDATGILKSFMTKNPTMRLGSLTQGGEHEILRHPFFKEIDWAQLNHRQLEPPFRPRIKSREDVSNFDPDFIKEEPVLTPIDEGHLPMINQDEFRNFSYVSPELQL
With B1, the binding result was “no binding”.

B2: PKCζ (protein kinase C zeta) (enzyme, mouse, UniProt Q02956 1-592, looked up)
chain: MPSRTDPKMDRSGGRVRLKAHYGGDILITSVDAMTTFKDLCEEVRDMCGLHQQHPLTLKWVDSEGDPCTVSSQMELEEAFRLVCQGRDEVLIIHVFPSIPEQPGMPCPGEDKSIYRRGARRWRKLYRANGHLFQAKRFNRGAYCGQCSERIWGLSRQGYRCINCKLLVHKRCHVLVPLTCRRHMDSVMPSQEPPVDDKNDGVDLPSEETDGIAYISSSRKHDNIKDDSEDLKPVIDGVDGIKISQGLGLQDFDLIRVIGRGSYAKVLLVRLKKNDQIYAMKVVKKELVHDDEDIDWVQTEKHVFEQASSNPFLVGLHSCFQTTSRLFLVIEYVNGGDLMFHMQRQRKLPEEHARFYAAEICIALNFLHERGIIYRDLKLDNVLLDADGHIKLTDYGMCKEGLGPGDTTSTFCGTPNYIAPEILRGEEYGFSVDWWALGVLMFEMMAGRSPFDIITDNPDMNTEDYLFQVILEKPIRIPRFLSVKASHVLKGFLNKDPKERLGCRPQTGFSDIKSHAFFRSIDWDLLEKKQTLPPFQPQITDDYGLDNFDTQFTSEPVQLTPDDEDVIKRIDQSEFEGFEYINPLLLSAEESV
B2: the binding result is reported as “no binding”.

B3: PKCε (protein kinase C epsilon) (enzyme, mouse, UniProt P16054 1-737, looked up)
chain: MVVFNGLLKIKICEAVSLKPTAWSLRHAVGPRPQTFLLDPYIALNVDDSRIGQTATKQKTNSPAWHDEFVTDVCNGRKIELAVFHDAPIGYDDFVANCTIQFEELLQNGSRHFEDWIDLEPEGKVYVIIDLSGSSGEAPKDNEERVFRERMRPRKRQGAVRRRVHQVNGHKFMATYLRQPTYCSHCRDFIWGVIGKQGYQCQVCTCVVHKRCHELIITKCAGLKKQETPDEVGSQRFSVNMPHKFGIHNYKVPTFCDHCGSLLWGLLRQGLQCKVCKMNVHRRCETNVAPNCGVDARGIAKVLADLGVTPDKITNSGQRRKKLAAGAESPQPASGNSPSEDDRSKSAPTSPCDQELKELENNIRKALSFDNRGEEHRASSATDGQLASPGENGEVRPGQAKRLGLDEFNFIKVLGKGSFGKVMLAELKGKDEVYAVKVLKKDVILQDDDVDCTMTEKRILALARKHPYLTQLYCCFQTKDRLFFVMEYVNGGDLMFQIQRSRKFDEPRSRFYAAEVTSALMFLHQHGVIYRDLKLDNILLDAEGHCKLADFGMCKEGIMNGVTTTTFCGTPDYIAPEILQELEYGPSVDWWALGVLMYEMMAGQPPFEADNEDDLFESILHDDVLYPVWLSKEAVSILKAFMTKNPHKRLGCVAAQNGEDAIKQHPFFKEIDWVLLEQKKIKPPFKPRIKTKRDVNNFDQDFTREEPILTLVDEAIIKQINQEEFKGFSYFGEDLMP
Take B3: the binding result is recorded as “no binding”.

B4: PKCα (protein kinase C alpha) (enzyme)
chain: not shown
In the case of B4, the binding result was “no binding”.
